The test has as its target T1, Extracellular domain (ECD) of the human neuronal α9 nAChR (human, UniProt Q9UGM1 23-238).
T1 construct: also called ECD of human α9 nAChR; water-soluble extracellular domain of human α9 nAChR; source: expressed, enzymatically deglycosylated and purified as described [26]
The test can be described thus: radioligand binding. The note with it: both partners purified.

One may read the IC50 as the concentration that gives 50% inhibition.

T1 sequence (Q9UGM1 23-238): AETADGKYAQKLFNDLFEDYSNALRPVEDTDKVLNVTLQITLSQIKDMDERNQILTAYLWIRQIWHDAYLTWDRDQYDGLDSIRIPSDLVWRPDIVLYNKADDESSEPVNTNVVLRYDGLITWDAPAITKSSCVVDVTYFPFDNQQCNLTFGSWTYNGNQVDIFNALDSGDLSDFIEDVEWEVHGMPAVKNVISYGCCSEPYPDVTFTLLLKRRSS

B1: PLA2 from porcine pancreas (enzyme)
chain: not shown
notes: also called PP PLA2; porcine pancreatic PLA2
Molecule B1 had an IC50 of 5.5 µM.
